Measurements taken from publication PMC4169044.

Target: 55S mitochondrial ribosome from pig liver mitochondria (pig (endogenous in pig liver mitochondria))
Assay: Western blotting of purified ribosomes against a protein standard; amount of integrated ICT1 on purified pig 55S ribosomes estimated with purified ICT1 as a standard

- stoichiometry N (ICT1 per 55S ribosome): 1
Substance: 55S-integrated ICT1 of the pig mitoribosome (mitochondrial ribosomal protein L58) (natural protein)
